Reference: patent US20250163449A1, “HERBICIDE-TOLERANT GENES AND METHOD FOR USING SAME” (QINGDAO KINGAGROOT CHEMICAL COMPOUND CO., LTD., priority 2022, published 2025)
Numbering of substitutions follows the chain as printed. In names and notes the source's numbering stands.

B1: SEQ ID NO: 106: RdpA mutant L82H + V187L + F182W + G103L + T112S (protein)
chain: MHAALSPLSQRFERIAVQPLTGVLGAEITGVDLREPLDDSTWNEILDAFHTYQVIYFPGQAITNEQHIAFSRRFGPVDPVPHLKSIEGYPEVQMIRREANESLRVIGDDWHSDSTFLDAPPAAVVMRAIDVPEHGGDTGFLSMYTAWETLSPTMQATIEGLNVVHSATRVFGSLYQAQNRRWSNTSLKVMDVDAGDRETVHPLVVTHPGSGRKGLYVNQVYCQRIEGMTDAESKPLLQFLYEHATRFDFTCRVRWKKDQVLVWDNLCTMHRAVPDYAGKFRYLTRTTVGGVRPAR
B2: SEQ ID NO: 90 (protein)
chain: B1 chain with S112T, R180L
B3: SEQ ID NO: 1: Amino acid sequence of RdpA (wild-type R-dichlorprop dioxygenase) (protein)
chain: B1 chain with H82L, L103G, S112T, W182F, L187V
modifications: Sphingobium herbicidovorans
B4: SEQ ID NO: 2 (protein)
chain: B1 chain with L103G, S112T, W182F, L187V
B5: SEQ ID NO: 130 (protein)
chain: B1 chain with L103G, R104G, R180M
B6: SEQ ID NO: 94 (protein)
chain: B1 chain with S112T, R180W
B7: SEQ ID NO: 14 (protein)
chain: B1 chain with L103G, S112T, W182F, L187I
B8: SEQ ID NO: 10 (protein)
chain: B1 chain with L103G, S112T, W182F, L187M
B9: SEQ ID NO: 26 (protein)
chain: B1 chain with L103G, R104L, S112T, W182F
B10: SEQ ID NO: 78: RdpA mutant L82H + V187L + F182W + G103L + R180D (protein)
chain: B1 chain with S112T, R180D
B11: SEQ ID NO: 66 (protein)
chain: B1 chain with L103G, R104G, D109E, S112T
B12: SEQ ID NO: 18 (protein)
chain: B1 chain with L103G, R104A, S112T, W182F
B13: SEQ ID NO: 118: RdpA mutant L82H + V187L + F182W + R104G + V77I (protein)
chain: B1 chain with V77I, L103G, R104G, S112T
B14: SEQ ID NO: 6 (protein)
chain: B1 chain with L103G, S112T, W182F
B15: SEQ ID NO: 122: RdpA mutant L82H + V187L + F182W + G103L + R104G + V105Y (protein)
chain: B1 chain with R104G, V105Y, S112T
B16: SEQ ID NO: 54: RdpA mutant L82H + V187L + F182W + R104G + R180W (protein)
chain: B1 chain with L103G, R104G, S112T, R180W
B17: SEQ ID NO: 22 (protein)
chain: B1 chain with L103G, R104D, S112T, W182F
B18: SEQ ID NO: 74 (protein)
chain: B1 chain with L103G, R104G, S112T, Q219P
B19: SEQ ID NO: 110 (protein)
chain: B1 chain with S112M
B20: SEQ ID NO: 114 (protein)
chain: B1 chain with S112T, F247Y
B21: SEQ ID NO: 98: RdpA mutant L82H + V187L + F182W + G103L + V80T (protein)
chain: B1 chain with V80T, S112T
B22: SEQ ID NO: 50: RdpA mutant L82H + V187L + F182W + R104G + V80T (protein)
chain: B1 chain with V80T, L103G, R104G, S112T
B23: SEQ ID NO: 62 (protein)
chain: B1 chain with L103G, R104G, D108C, S112T
B24: SEQ ID NO: 30 (protein)
chain: B1 chain with L103G, S112T
B25: SEQ ID NO: 34 (protein)
chain: B1 chain with S112T, W182F
B26: SEQ ID NO: 58: RdpA mutant L82H + V187L + F182W + R104G + R180M (protein)
chain: B1 chain with L103G, R104G, S112T, R180M
B27: SEQ ID NO: 134 (protein)
chain: B1 chain with L103G, R104G, R180W
B28: SEQ ID NO: 70 (protein)
chain: B1 chain with L103G, R104G, S112T, Q219C

Legend:
[1] = Conversion rate of substrate compound A by E. coli expressing each engineered protein (HPLC, oxygenase activity); type: biochemical
Source text: The high-throughput bacterial protein expression was achieved by cloning the synthesized gene that encodes each engineered protein into a bacterial expression vector with a C-terminal histidine tag (His-tag). The vectors were transformed into Escherichia coli (E. coli), and expression of the engineered proteins was induced. E. coli cultures were selected and cultured in centrifuge tubes overnight, meanwhile, added with substrates and IPTG, and the cultures were centrifuged to pellet the bacteria the next day. Alternatively, E. coli cultures were selected and cultured in centrifuge tubes overnight, and centrifuged to pellet the bacteria after adding substrates for reaction the next day. The supernatant of reaction solution was pipetted into a 96-well plate and the absorbance at 510 nm from 4-aminoantipyrine and potassium ferricyanide was measured by an endpoint colorimetric method to detect phenol products. Substrate reduction and product yield were measured by high performance liquid chromatography (HPLC) to detect the oxygenase activity (i.e., enzymatic activity) of the engineered proteins, and the activities of the proteins were compared by calculating conversion rates.
Conversion rate=(Peak area of initial substrate−Peak area of substrate after reaction)/Peak area of initial substrate*100%

[2] = test system: rice (Jinjing 818); test: Transgenic rice seedlings, compound B added to medium at rooting phase; type: in vivo; conditions: at least 1 μM compound B in medium (0.5 and 1 μM for SEQ ID NO: 42), 17-26 days
Protocol: Plant transformation vectors were constructed, each comprising a recombinant DNA molecule encoding an engineered protein (SEQ ID NO: 42/38/82/86/102/106/126/138/142) with the protein-coding sequence optimized for monocot expression, and rice (Jinjing 818) calli were transformed with these vectors using Agrobacterium tumifaciens and standard methods known in the art. Different concentrations of hormone herbicide compound B were added at the rooting phase of the rice seedlings to test hormone resistance, wherein, the test results of control Jinjing 818 plants and transgenic Jinjing 818 plants comprising the protein-coding gene of SEQ ID NO: 42 after adding 0.5 μM and 1 μM compound B to medium for 19 days are shown in FIG. 1. The test results of control Jinjing 818 plants and transgenic Jinjing 818 plants comprising the protein-coding genes of SEQ ID NO: 38/82/86/102/106/126/138/142 after adding 1 μM compound B to medium are shown in FIG. 5-11.

[3] = test system: rice (Jinjing 818); test: Transgenic rice T0 plantlets in greenhouse sprayed with compound B; type: in vivo; conditions: medicated medium test and greenhouse spraying test for T0 generation, compound B
Protocol: Then, the obtained regenerated TO generation transgenic plantlets grew in the greenhouse, and were sprayed with compound B at the growth stage when approximately two leaves unfolded and the third one just appearing. Resistance levels of plants were recorded and evaluated after spraying treatment, wherein, the test results of control Jinjing 818 plants and transgenic Jinjing 818 plants comprising the protein-coding gene of SEQ ID NO: 42 after applying 20 g, 40 g, 60 g, 80 g, 100 g, 120 g/mu (1 mu=1/15 ha) compound B for corresponding days (DAT) are shown in FIG. 2.

[4] = test system: Arabidopsis thaliana; test: T2 transgenic Arabidopsis thaliana seeds screened on compound A medium; type: in vivo; conditions: 0.15 μM compound A in medium, 11-24 days
Source text: Engineered proteins were selected for Arabidopsis thaliana transformation and plant analysis. DNA constructs were transformed into Arabidopsis thaliana using Agrobacterium tumifaciens and standard methods known in the art.
The transformed TO transgenic plantlets grew in the greenhouse. T1 generation Arabidopsis thaliana plant seeds produced by transformation of all constructs were collected after approximately 60 days of growth. Transgenic T1 generation Arabidopsis thaliana plants were screened by adding HYG to medium for T1 generation. T1 plants were selfed to produce seeds of T2 generation Arabidopsis thaliana plants. Wherein, compound A was added to medium to screen and test T2 generation Arabidopsis thaliana plant seeds, that were produced by all constructs, comprising unique events screened by T1 generation.

[5] = Enzymatic kinetic measurements of purified proteins with compound A as substrate; type: biochemical; conditions: purified protein, compound A 0-1000 μM as substrate
Protocol: Based on the results of HPLC, representative engineered proteins were selected for protein purification. Further protein characterization, such as Km, Vmax and Kcat, was performed on the 8 engineered proteins from Table 2. Conventional Ni column affinity chromatography was used for protein purification and protein extract purity was assessed by SDS-PAGE analysis. After determining protein concentration by BCA method, enzyme activity was determined.

[6] = Reaction condition 2: bacteria cultured overnight, 8 times dose of substrate compound A of condition 1 added, react 3 hours the next day
[7] = Reaction condition 1: bacteria cultured overnight, substrate compound A and IPTG added to react overnight

| Molecule | Conversion rate [1, 6] | Conversion rate [1, 7] | further results |
| --- | --- | --- | --- |
| B1 | 86.3% | – | drug resistance (tolerance to compound B) compared with wild-type plants [2]: exhibited better drug resistance; tolerance compared with the wild types (summary) [3]: exhibited apparent tolerance |
| B2 | 57.5% | – | – |
| B3 | 0.06% | 0.06% | – |
| B4 | – | 67.5% | – |
| B5 | 88.3% | – | – |
| B6 | 63.2% | – | – |
| B7 | – | 76.8% | – |
| B8 | – | 94.1% | – |
| B9 | – | 96.8% | – |
| B10 | 79% | – | drug resistance compared with wild-type Arabidopsis thaliana (longer roots and larger leaves) [4]: exhibited better drug resistance |
| B11 | – | 94% | – |
| B12 | – | 92.1% | – |
| B13 | – | 95.8% | Kcat [5]: 0.43 S^−1; Km [5]: 83.7 µM; Vmax [5]: 99.5 |
| B14 | – | 95.2% | – |
| B15 | – | 94.3% | Kcat [5]: 1.1 S^−1; Km [5]: 96.4 µM; Vmax [5]: 127.9 |
| B16 | – | 92.5% | Kcat [5]: 0.35 S^−1; Km [5]: 96.9 µM; Vmax [5]: 81 |
| B17 | – | 95.5% | – |
| B18 | – | 97.2% | – |
| B19 | 54.6% | – | – |
| B20 | 53% | – | – |
| B21 | 81% | – | drug resistance compared with wild-type Arabidopsis thaliana (longer roots and larger leaves) [4]: exhibited better drug resistance |
| B22 | – | 97.2% | Kcat [5]: 0.07 S^−1; Km [5]: 24.9 µM; Vmax [5]: 15.7 |
| B23 | – | 90% | – |
| B24 | – | 96.5% | – |
| B25 | – | 90% | – |
| B26 | – | 90% | Kcat [5]: 0.05 S^−1; Km [5]: 28.3 µM; Vmax [5]: 12.3 |
| B27 | 77.6% | – | – |
| B28 | – | 94% | – |
